The values that follow come from PMC4013067.

The conditions of this data set: N-glycosylation at N138.

As to “nicotinic acetylcholine receptor β4 subunit: M467V+S140G, co-expressed with α3”, the localisation_or_trafficking entry is reported as “decreases, relative surface ELISA 0.17±0.02 vs 1.00 (WT), P<0.001”.

As for “nicotinic acetylcholine receptor β4 subunit: S140G (sequon disruption), co-expressed with α3”, the expression_or_secretion entry is listed as “no change” and the localisation_or_trafficking entry was “abolishes, relative surface ELISA −0.04±0.05 vs 1.00 (WT), P<0.001”.

Take “nicotinic acetylcholine receptor β4 subunit: S140G (sequon disruption), co-expressed with α3: nicotine EC50”: the other entry is listed as “changes, nicotine EC50 22±4 µM (WT) to 48±4 µM, P<0.05; ACh EC50 not significantly changed”.

As for “nicotinic acetylcholine receptor β4 subunit: S140G (sequon disruption), co-expressed with α4”, the localisation_or_trafficking entry is “abolishes, relative surface ELISA −0.13±0.22 vs 1.00 (WT), P<0.001”.

For the substance “nicotinic acetylcholine receptor β4 subunit: S140G (sequon disruption), co-expressed with α4: ACh and nicotine EC50”, the other entry is on record as “changes, ACh EC50 9.36±1.35 to 16.7±2.1 µM (P<0.01); nicotine EC50 1.48±0.17 to 2.75±0.27 µM (P<0.01); sag to ACh 0.90 to 0.76 (P”.
